Source: patent US20030148956A1 (PROCTER AND GAMBLE, published 2003)
Ends that are not written are not given here.

T1: CRF2R
T1 sequence (Q13324 whole entry, species assumed, looked up): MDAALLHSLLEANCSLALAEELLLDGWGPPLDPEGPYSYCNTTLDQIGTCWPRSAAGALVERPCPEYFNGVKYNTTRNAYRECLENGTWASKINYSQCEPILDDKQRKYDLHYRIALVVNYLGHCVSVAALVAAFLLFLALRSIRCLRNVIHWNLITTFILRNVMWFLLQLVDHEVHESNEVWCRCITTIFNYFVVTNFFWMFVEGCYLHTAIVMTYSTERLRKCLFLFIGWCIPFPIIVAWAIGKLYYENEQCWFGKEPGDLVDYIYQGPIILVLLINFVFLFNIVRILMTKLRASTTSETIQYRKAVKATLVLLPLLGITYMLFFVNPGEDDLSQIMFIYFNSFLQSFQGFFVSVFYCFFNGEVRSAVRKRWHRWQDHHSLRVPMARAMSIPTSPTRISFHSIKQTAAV


Experiments:
CRF2R = target: T1, CRF2R; assay: cell-based or functional assay
CRF1R = assay: cell-based or functional assay

Binder	CRF2R EC50 (CRF2R)	CRF2R Emax (CRF2R)	CRF1R EC50 (CRF1R)	CRF1R Emax (CRF1R)
Ac-IVLSLDVPIGLLQILLEQEKARAAREQATTNARILARV-NH2 [SEQ ID NO 3]	0.0121 µM			
SQEPPISLDLPLELLREVLEMTKADQLAQQAHSNRKLLDIA-NH2 [SEQ ID NO 89]	0.1 µM	12.7%		
IVLSLDVPIGLLQILLEQEKARAAREQATTNARILARV-NH2 [SEQ ID NO 121]	0.00567 µM			
Ac-IVLSLDVPIGLLQILLEQEKARAAREQATTNARILARV-NH2 (not fully specified) [SEQ ID NO 107]	0.0121 µM			
ZGPPISIDLSIGLLRKMIEIEKQEKEKQQAANNRLLLDTI (C-terminal amide) [SEQ ID NO 25]	0.081 µM	81.9%	0.677 µM	92.3%
ZGPPISIDLPTVLLRKMIEIEKQEKEKQQAANNRLLLDTI (C-terminal amide) [SEQ ID NO 46]	> 0.1 µM	100%	> 1 µM	17%
ZGPPISIDLPQYLLRKMIEIEKQEKEKQQAANNRLLLDTI (C-terminal amide) [SEQ ID NO 27]	0.0107 µM	96%	0.325 µM	100%
ZGPPISIDLPTTLLRKMIEIEKQEKEKQQAANNRLLLDTI (C-terminal amide) [SEQ ID NO 42]	> 0.1 µM	88%	> 1 µM	10%
ZGPPISIDLPTILLRKMIEIEKQEKEKQQAANNRLLLDTI (C-terminal amide) [SEQ ID NO 50]	0.019 µM	94%	> 1 µM	42%
ZGPPISIDLPIRLLRKMIEIEKQEKEKQQAANNRLLLDTI (C-terminal amide) [SEQ ID NO 38]	0.0719 µM	91%	> 1 µM	11%
ZGPPISIDLPIALLRKMIEIEKQEKEKQQAANNRLLLDTI (C-terminal amide) [SEQ ID NO 47]	> 0.1 µM	66%	1 µM	12%
ZGPPISIDLPINLLRKMIEIEKQEKEKQQAANNRLLLDTI (C-terminal amide) [SEQ ID NO 37]	> 0.1 µM	51%	> 1 µM	5%
ZGPPISIDLPVYLLRKMIEIEKQEKEKQQAANNRLLLDTI (C-terminal amide) [SEQ ID NO 39]	0.0582 µM	94%	1 µM	63%
ZGPPISIDLPAYLLRKMIEIEKQEKEKQQAANNRLLLDTI (C-terminal amide) [SEQ ID NO 32]	0.0203 µM	98%	0.606 µM	94%
ZGPPISIDLPTPLLRKMIEIEKQEKEKQQAANNRLLLDTI (C-terminal amide) [SEQ ID NO 52]	> 0.1 µM	10%	> 1 µM	13%
ZGPPISIDLPILLLRKMIEIEKQEKEKQQAANNRLLLDTI (C-terminal amide) [SEQ ID NO 35]	0.0156 µM	88%	> 1 µM	74%
ZGPPISIDLPQQLLRKMIEIEKQEKEKQQAANNRLLLDTI (C-terminal amide) [SEQ ID NO 198]	0.0299 µM	100%		
ZGPPISIDLPISLLRKMIEIEKQEKEKQQAANNRLLLDTI (C-terminal amide) [SEQ ID NO 53]	> 0.1 µM	95%	> 1 µM	19%
ZGPPISIDLPIVLLRKMIEIEKQEKEKQQAANNRLLLDTI (C-terminal amide) [SEQ ID NO 31]	0.0307 µM	100%	> 1 µM	18%

Binder	CRF2R EC50 (CRF2R)	CRF2R Emax (CRF2R)	CRF1R EC50 (CRF1R)	CRF1R Emax (CRF1R)
ZGPPISIDLPIDLLRKMIEIEKQEKEKQQAANNRLLLDTI (C-terminal amide) [SEQ ID NO 28]	0.1 µM	15%	> 1 µM	2%
ZGPPISIDLPSYLLRKMIEIEKQEKEKQQAANNRLLLDTI (C-terminal amide) [SEQ ID NO 56]	0.0504 µM	87%	> 0.1 µM	14%
ZGPPISIDLPTKLLRKMIEIEKQEKEKQQAANNRLLLDTI (C-terminal amide) [SEQ ID NO 45]	> 0.1 µM	44%	> 1 µM	7%
ZGPPISIDLPIILLRKMIEIEKQEKEKQQAANNRLLLDTI (C-terminal amide) [SEQ ID NO 36]	0.0148 µM	73%	> 1 µM	33%
ZGPPISIDLPTDLLRKMIEIEKQEKEKQQAANNRLLLDTI (C-terminal amide) [SEQ ID NO 49]	> 0.1 µM	37%	> 1 µM	15%
ZGPPISIDLPIFLLRKMIEIEKQEKEKQQAANNRLLLDTI (C-terminal amide) [SEQ ID NO 29]	0.016 µM	100%	> 1 µM	79%
ZGPPISIDLPDYLLRKMIEIEKQEKEKQQAANNRLLLDTI (C-terminal amide) [SEQ ID NO 54]	0.1 µM	11%	1 µM	10%
ZGPPISIDLPTSLLRKMIEIEKQEKEKQQAANNRLLLDTI (C-terminal amide) [SEQ ID NO 43]	> 0.1 µM	67%	> 1 µM	10%
ZGPPISIDLPEYLLRKMIEIEKQEKEKQQAANNRLLLDTI (C-terminal amide) [SEQ ID NO 48]	0.1 µM	14%	1 µM	21%
ZGPPISIDLSLELLRKMIEIEKQEKEKQQAANNALLLATI (C-terminal amide) [SEQ ID NO 30]	0.0187 µM	85.5%	0.1 µM	100%
ZGPPISIDLPIPLLRKMIEIEKQEKEKQQAANNRLLLDTI (C-terminal amide) [SEQ ID NO 26]	0.0917 µM	86%	> 1 µM	16%
ZGPPISIDLPWYLLRKMIEIEKQEKEKQQAANNRLLLDTI (C-terminal amide) [SEQ ID NO 55]	0.00795 µM	95%	0.0116 µM	92%
ZGPPISIDLPIKLLRKMIEIEKQEKEKQQAANNRLLLDTI (C-terminal amide) [SEQ ID NO 34]	> 0.1 µM	45%	> 1 µM	11%
ZGPPISIDLPPYLLRKMIEIEKQEKEKQQAANNRLLLDTI (C-terminal amide) [SEQ ID NO 57]	> 0.1 µM	46%	> 0.1 µM	12%
ZGPPISIDLPQVLLRKMIEIEKQEKEKQQAANNRLLLDTI (C-terminal amide) [SEQ ID NO 197]	0.0481 µM	94%		
ZGPPISIDLPYYLLRKMIEIEKQEKEKQQAANNRLLLDTI (C-terminal amide) [SEQ ID NO 40]	0.00695 µM	93%	0.103 µM	99%
ZGPPISIDLPTFLLRKMIEIEKQEKEKQQAANNRLLLDTI (C-terminal amide) [SEQ ID NO 44]	0.0192 µM	87%	0.944 µM	64%
ZGPPISIDLPTWLLRKMIEIEKQEKEKQQAANNRLLLDTI (C-terminal amide) [SEQ ID NO 41]	0.0183 µM	100%	> 1 µM	43%
ZGPPISIDLPTLLLRKMIEIEKQEKEKQQAANNRLLLDTI (C-terminal amide) [SEQ ID NO 51]	0.0206 µM	100%	> 1 µM	48%
